# From US9157064B2, “Methods for generating inner ear cells in vitro” (The Board of Trustees of the Leland Stanford Junior …, priority 2011, dated 2015)
# Entries after “also recorded” stand apart in the source; their conditions may differ.
# How the values were obtained:
# [1] = test system: ESC- and iPSC-derived cells; assay: Differentiation cultures of D/S/I and bFGF-treated ESC- and iPSC-derived cells with added supplements; format: cell-based, mouse; details: differentiation cultures supplemented, data not shown
# Description: Future identification of these signals could provide important clues about the mechanisms controlling the initiation of hair bundle growth during embryonic development.
# Beside FGF signaling, activation of the canonical Wnt pathway has been proposed to further promote otic commitment of Pax2-expressing cells of the FGF-dependent pre-otic field of the chicken embryo (Ohyama et al., 2006).
# [2] = test system: ESC-derived embryoid bodies; assay: Suppression of meso- and endodermal differentiation in ESC-derived embryoid bodies (Brachyury/GATA6 immunostaining); format: cell-based, mouse; details: single factor
# Procedure: (§1) ES cell line C9 and iPS cell line #25-5 were used for all guidance experiments. MEF feeder cells were removed either by weaning the cells off for several passages or by pre-culturing the cells for 40 min allowing MEFs to attach. For embryoid body formation, the cells were dissociated with 0.25% trypsin-EDTA (Invitrogen) and cultured in poly(2-hydroxyethyl methacrylate)-coated 6-well cell suspension plates (Greiner). Coating was done by covering the plates with 1 ml of 2% poly(2 hydroxyethyl methacrylate) (Sigma) solution in 1:1 ethanol/acetone. After 2 min, the solution was completely aspirated and the plates were dried with open lid for 20 min in a cell culture cabinet. After three washes with PBS, the ES and iPS cells were added at a density of 50 cells/ml and cultured for 5 days in DMEM (Invitrogen) with 15% FBS, 0.1 mM MEM non-essential amino acids, […] 2-mercaptoethanol, 2 mM L-glutamine and […] ampicillin. For otic induction experiments, the following growth factors or reagents were added to the medium: recombinant mouse Dickkopf related protein 1 (Dkk-1) at 100 ng/ml (R&D Systems), SIS3 at […] (Sigma), and IGF1 at 10 ng/ml (Sigma). […]
# (§2) For immunocytochemistry, the cells were fixed with 4% paraformaldehyde in PBS for 15 min at room temperature. […] Images were acquired with a Zeiss Axioimager/LSM 5 Exciter fluorescence and confocal microscope. […]
# ESC-derived cultures = assay: Otic induction of ESC-derived embryoid body cultures (Pax2 immunostaining); format: cell-based, mouse; details: D/S/I-treated ESC-derived embryoid body cells; SU5402 treatment between d5 and d8
# Procedure: Embryoid bodies were transferred into fibronectin-coated 4-well dishes (Greiner) at 30 embryoid bodies per well and cultured for three days in DMEM/F12 (Invitrogen, mixed 1:1) supplemented with N2 and B27 (Invitrogen), bFGF (R&D Systems, 25 ng/ml), heparin sulfate (Sigma, 50 ng/ml), and ampicillin ([…]). FGF3 (recombinant human FGF-3, R&D Systems) and FGF10 (recombinant human FGF-10, R&D Systems) were used at 25 ng/ml in parallel experiments. The FGF receptor antagonist SU5402 (a gift from Pfizer R&D) was used at […]. After FGF-treatment, the cells were detached using 0.05% trypsin/EDTA (Sigma) in PBS, mildly triturated, and passed 1:10 into individual wells of 4-well dishes coated with either fibronectin, gelatin, MEFs, or mitotically inactivated embryonic (E18) chicken utricle stromal cells. Utricle stromal cells were prepared from 20 utricles whose sensory epithelia were removed after 40 min treatment with 0.5 mg/ml thermolysin (Sigma) in DMEM/F12 at 37 C. After addition of 5% serum, the sensory epithelia were removed and used in unrelated experiments. […]
# as §2
# hESCs = assay: Otic induction from hESCs (PAX2-expressing otic progenitor cells); format: cell-based, human; details: hESC-derived cultures; factor added in the induction and/or stabilization phase (FIG. 23)
# Procedure: FIG. 22. Optimization of lengths of incubations with factors for culturing cell populations comprising otic progenitor cells from hESCs. (a) and (b). A culture that is enriched 8.3% for PAX2-expressing otic progenitor cells may be generated by the incubation of hESCs with DKK1/SIS3/IFG-1 for 5 days, followed by incubation of the resultant embryoid bodies comprising preplacodal ectodermal cells with bFGF for 3 days.
# FIG. 23A-C. Culturing in the presence of different factors impacts the proportion of otic progenitor cells produced. (a) Culturing in the presence of BMP4 reduces the proportion of otic progenitor cells produced. (b) Culturing in the presence of Noggin during the induction phase of otic progenitor cell fate acquisition, and restricting the exposure of cells to BMP4 to the stabilization phase of otic progenitor cell fate acquisition increases the proportion of otic progenitor cells produced. (c) Culturing in the presence of R-spondin 1 during the induction phase of otic progenitor cell fate acquisition increases the proportion of otic progenitor cells produced.
# FIG. 23D. Culturing in the presence of FGF19 during both the induction phase and the stabilization phase of otic progenitor cell fate acquisition increases the proportion of otic progenitor cells produced.
# [3] = test system: iPSC-derived embryoid bodies; assay: Suppression of meso- and endodermal differentiation in iPSC-derived embryoid bodies (Brachyury/GATA6 immunostaining); format: cell-based, mouse; details: single factor
# Procedure: as §1, §2
molecule,measurement,setting,value
"[Cl-].[Li+] [LiCl, reference compound]",ability or efficiency to generate hair cell-like cells,[1],did not observe an increase
"COc1cc2c(cc1OC)CN(C(=O)/C=C/c1c(-c3ccccc3)n(C)c3ncccc13)CC2 [SIS3, reference compound]","number of Brachyury-positive cells, factor alone",[2],significantly reduced
Cc1c[nH]c(/C=C2\C(=O)Nc3ccccc32)c1CCC(=O)O [SU5402],Pax2 induction / Pax2 expression,ESC-derived cultures,abolishment of Pax2 induction; also recorded: virtually diminished Pax2 expression
"FGF19: fibroblast growth factor 19, ligand for FGFR4",proportion of otic progenitor cells produced,hESCs,increases
"Wnt3a: recombinant Wnt3a (protein, UniProt P56704 19-352, looked up) Protein Wnt-3a: SYPIWWSLAVGPQYSSLGSQPILCASIPGLVPKQLRFCRNYVEIMPSVAEGIKIGIQECQHQFRGRRWNCTTVHDSLAIFGPVLDKATRESAFVHAIASAGVAFAVTRSCAEGTAAICGCSSRHQGSPGKGWKWGGCSEDIEFGGMVSREFADARENRPDARSAMNRHNNEAGRQAIASHMHLKCKCHGLSGSCEVKTCWWSQPDFRAIGDFLKDKYDSASEMVVEKHRESRGWVETLRPRYTYFKVPTERDLVYYEASPNFCEPNPETGSFGTRDRTCNVSSHGIDGCDLLCCGRGHNARAERRREKCRCVFHWCCYVSCQECTRVYDVHTCK",ability or efficiency to generate hair cell-like cells,[1],did not observe an increase
"BMP4: activator of BMP signaling (protein, UniProt P12644 293-408, looked up) Bone morphogenetic protein 4: SPKHHSQRARKKNKNCRRHSLYVDFSDVGWNDWIVAPPGYQAFYCHGDCPFPLADHLNSTNHAIVQTLVNSVNSSIPKACCVPTELSAISMLYLDEYDKVVLKNYQEMVVEGCGCR",proportion of otic progenitor cells produced,hESCs,reduces
"Dkk1: recombinant mouse Dickkopf related protein 1, Wnt inhibitor (protein, UniProt O54908 32-272, looked up) Dickkopf-related protein 1: TLNSVLINSNAIKNLPPPLGGAGGQPGSAVSVAPGVLYEGGNKYQTLDNYQPYPCAEDEECGSDEYCSSPSRGAAGVGGVQICLACRKRRKRCMRHAMCCPGNYCKNGICMPSDHSHFPRGEIEESIIENLGNDHNAAAGDGYPRRTTLTSKIYHTKGQEGSVCLRSSDCAAGLCCARHFWSKICKPVLKEGQVCTKHKRKGSHGLEIFQRCYCGEGLACRIQKDHHQASNSSRLHTCQRH","number of Brachyury-positive cells, factor alone",[2],significantly reduced
same,"Brachyury-expressing cell population, factor alone",[3],significantly reduce
"Noggin: naturally occurring inhibitor of BMP signaling (protein, UniProt Q13253 28-232, looked up) Noggin: QHYLHIRPAPSDNLPLVDLIEHPDPIFDPKEKDLNETLLRSLLGGHYDPGFMATSPPEDRPGGGGGAAGGAEDLAELDQLLRQRPSGAMPSEIKGLEFSEGLAQGKKQRLSKKLRRKLQMWLWSQTFCPVLYAWNDLGSRFWPRYVKVGSCFSKRSCSVPEGMVCKPSKSVHLTVLRWRCQRRGGQRCGWIPIQYPIISECKCSC",proportion of otic progenitor cells produced,hESCs,increases
"R-spondin 1: Roof plate-specific Spondin 1, natural enhancer of the canonical Wnt pathway (protein, UniProt Q2MKA7 21-263, looked up) R-spondin-1: SRGIKGKRQRRISAEGSQACAKGCELCSEVNGCLKCSPKLFILLERNDIRQVGVCLPSCPPGYFDARNPDMNKCIKCKIEHCEACFSHNFCTKCKEGLYLHKGRCYPACPEGSSAANGTMECSSPAQCEMSEWSPWGPCSKKQQLCGFRRGSEERTRRVLHAPVGDHAACSDTKETRRCTVRRVPCPEGQKRRKGGQGRRENANRNLARKESKEAGAGSRRRKGQQQQQQQGTVGPLTSAGPA",proportion of otic progenitor cells produced,hESCs,increases
